We go through 1 substance from article PMC7368059.

The target in this assay is full length La Crosse virus L protein (RNA-dependent RNA polymerase) (La Crosse virus (strain LACV/mosquito/1978)) (UniProt A5HC98). The assay is described as follows: crystal structure; LACV-L FL with 3' (1-16) and 5' (9-16) vRNA at 5 mg/ml, 5' (1-10) vRNA soaked in; 100 mM Tris pH 8.0, 100 mM NaCl, 8% PEG 4000; space group C2, 4.0 Å; two L protein complexes per asymmetric unit.

In general, stoichiometry N refers to the number of molecules, sites or subunits per partner or assembly.

The substance “full length La Crosse virus L protein (RNA-dependent RNA polymerase) (from UniProt A5HC98 1-2263) (enzyme)” had a stoichiometry N of 2.
